Results on one protein are retold here after paper PMC5775292, “Comprehensive reduction of amino acid set in a protein suggests the importance of prebiotic amino acids for stable proteins” (Scientific Reports, 2018).

This data set deals with the molecule itself. Kind of data set: SEC; analytical gel filtration, Superdex 200 (1.0 x 30 cm), 20 mM potassium phosphate pH 6.0, 150 mM KCl, 1 mM EDTA; initial protein concentration 20 uM, 0.2 ml loaded, 0.5 ml/min; apparent molar mass from a calibration curve. (Size exclusion chromatography separates by hydrodynamic size, large species first.)

Usually stoichiometry N stands for the number of molecules, sites or subunits per partner or assembly.

B1: Bacillus subtilis nucleoside diphosphate kinase (enzyme, UniProt P31103 1-149, looked up)
chain: MMEKTFIMVKPDGVQRQLIGDILSRFERKGLQLAGAKLMRVTEQMAEKHYAEHQGKPFFGELVEFITSGPVFAMVWEGENVIEVTRQLIGKTNPKEALPGTIRGDYGMFVGKNIIHGSDSLESAEREINIFFKNEELVSYQQLMAGWIY
notes: nucleoside diphosphate kinase, Bacillus subtilis; construct not described; also called B. subtilis NDK; extant mesophilic NDK
As for B1, the “stoichiometry N” value was found to be 6.
